Target: GST-ZZS05 fusion protein (UniProt P08515 1-218 = GST)
Assay: Biacore SPR as in Example 3.3

Chain of GST-ZZS05 fusion protein (P08515 1-218, tags or fused parts left off): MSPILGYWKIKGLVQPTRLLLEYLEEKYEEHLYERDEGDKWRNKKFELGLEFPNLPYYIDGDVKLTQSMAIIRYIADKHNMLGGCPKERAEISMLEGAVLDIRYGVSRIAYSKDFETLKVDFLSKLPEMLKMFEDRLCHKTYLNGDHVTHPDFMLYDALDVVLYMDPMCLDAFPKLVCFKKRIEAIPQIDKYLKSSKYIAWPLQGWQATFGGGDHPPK

B1: h29 (antibody, V domains shown)
VH: QVQLVESGGGVVQPGRSLTLSCAASGFTFSRYGMHWVRQAPGKGLEWVTVITYDGRKKYYADSVKGRFTISRDNSQNTLSLQMNSLRAEDTAVYYCAKDLLIGYGMDVWGQGTTVTVSS
VL: DIVMTQSPDSLAVSLGERATIKCKSSQSVFFSSSNKNFLTWYQQKPGQPPKLLIYWASTRESGVPDRFSGSGSGTDFTLTINNLQAEDVTVYYCQQCFSTPYSFGQGTKLEIKR
B1 was tested. Which Kd did it give?
Its Kd is 1.2 nM.

Source: patent EP4752156A1 (Shanghai Yunxuan Biotechnologies, Inc., dated 2026)
